Source: the nanobody polyreactivity screen of Harvey et al. (2022)

Experiment: yeast display, Sf9 membrane polyspecificity reagent, FACS + sequencing; frameworks hold sequencing errors
How it was run: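 In a synthetic yeast display library (Saccharomyces cerevisiae BJ5465), nanobody expression was induced with galactose for 36–48 hours. FACS gates were set low and high (top ~1%) using anti-HA fluorescence for expression and streptavidin fluorescence for binding of the Sf9 membrane reagent. Each polyreactivity label is drawn from the gate of origin.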

Q: Which “polyreactivity (PSR sort gate)” value does the source give for “QVQLVESGGGLVQAGGSLRLSCAASGRIFYPYAMGWSRQAPGKERELVAAISSSAGITYYADSVKGRFTISRDNAKKTVYLQMNSLKPEDTAVYYCAKYPVRNPYGYRYDYWGQGTQVTVSS” here?
A: high polyreactivity

Q: For “QVQLVESGGGLVQAGGSLRLSCAASGRIFYPYAMGWYIQAPGKERELVADISIGGSTNYADSVKGRFTISRDNAKNTVYLQMNSLKPEDTAVYYCNAGGGFYGSTVEHDYWGQGTQVTVSS”, which “polyreactivity (PSR sort gate)” value is on record?
A: low polyreactivity

Q: With “QVQLVESGGGLVQAGGSLRLSCAASGRIFYPYAMGWYRQAPGKERELVAAITWSTGRTYYADSVKGRFTISRDNAKNTVYLQMNSLKPEDTAVYYCAATGTLKRRYGYWGQGTQVTVSS” as the sequence, how does the “polyreactivity (PSR sort gate)” value read?
A: high polyreactivity

Q: With “QVQLVESGGGLVQAGGSLRLSCAASGRIFYPYAMGWYRQAPGKERELVGYSRGGSTNYADSVKGRFTISRDNAKNTVYLQMNSLKPEDTAVYYCARDVHRSGYLIFDYWGQGTQVTVSS” as the sequence, how does the “polyreactivity (PSR sort gate)” value read?
A: low polyreactivity

Q: Which “polyreactivity (PSR sort gate)” value does the source give for “QVQLVESGGGLVQAGGSLRLSCAASGRIFYPYAMVWYRQAPGKERELVAGISFRDGSRYYADSVKGRFTISRDNAKNTVYLQMNSLKPEDTAFYYSAAVGQTHTTSPLSTKFDYWGQGTQVTVSS” here?
A: low polyreactivity

Q: For “QVQLVESGGGLVQAGGSLRLSCAASGRIFYPYFMGWYRQAPGKERELVAAISASGGRTYYADSVKGRFTISRDNSKNTVYLQMNSLKPEDTAVYYCNARTVPAGTLYDYWGQGTQVTVSS”, which “polyreactivity (PSR sort gate)” value is on record?
A: low polyreactivity

Q: With “QVQLVESGGGLVQAGGSLRLSCAASGRIFYPYSMGWYRQAPGKERELVATITYIGGSTYADSVKGRFTISRDNAKNTVYLQMNSLKPEDTAVYYCAASETYFRFPFGIYYYWGQGTQVTVSS” as the sequence, how does the “polyreactivity (PSR sort gate)” value read?
A: low polyreactivity

Q: Which “polyreactivity (PSR sort gate)” value does the source give for “QVQLVESGGGLVQAGGSLRLSCAASGRIFYQNALGWYRQAPGKERELVADITSGGSTYYADSVKGRFTISRDNAKNTVYLQMNSLKPEDTAVYDCNTPSGPGTVGSYRRKWYGYWGQGTQVTVSS” here?
A: low polyreactivity

Q: With “QVQLVESGGGLVQAGGSLRLSCAASGRIFYQNVMGWYRQAPGKERELVAAITRRDVTTYADSVKGRFTISRDNAKNTVYLQMNSLKPEDTAVYYCNAVYYNWIGFDYWGQGTQVTVSS” as the sequence, how does the “polyreactivity (PSR sort gate)” value read?
A: low polyreactivity

Q: With “QVQLVESGGGLVQAGGSLRLSCAASGRIFYQYAMGWYRQAPGKEREMVAAISRRGASTYYADSVKGRFTISRDNAKNTVYLQMNSLKPEDTAVYYCAAEPRAYSHQYNYWGQGTQVTVSS” as the sequence, how does the “polyreactivity (PSR sort gate)” value read?
A: high polyreactivity

Q: With “QVQLVESGGGLVQAGGSLRLSCAASGRIFYRNAMGWYRQAAGKERELVAGITRGGSTNYADSVKGRFTISRDNAKNTDYLQMNSLKPEETAVYYCAKAIPAKFYSEAGYDYWGQGTQVTVSS” as the sequence, how does the “polyreactivity (PSR sort gate)” value read?
A: low polyreactivity

Q: With “QVQLVESGGGLVQAGGSLRLSCAASGRIFYRNAMGWYRQAPGKERELVAAIRGSGGRTYYADSVKGRFTISRDNAKNTVYLQMNSLKPEDTAVYYCAAYGYYVEHPRGLSGPYDDDYWGQGTQVTVSS” as the sequence, how does the “polyreactivity (PSR sort gate)” value read?
A: low polyreactivity

Q: Which “polyreactivity (PSR sort gate)” value does the source give for “QVQLVESGGGLVQAGGSLRLSCAASGRIFYRNAMGWYRQAPGKERELVAAISSSAGSTYYADSVKGRFTISRDNAKNTVYLQMNSLKPEDTAVYYCAAGSGTFVTRYRYGYWGQGTQVTVSS” here?
A: high polyreactivity

Q: With “QVQLVESGGGLVQAGGSLRLSCAASGRIFYRNAMGWYRQAPGQERELVAAISKSGGSTYYADSVKGRFTISRDNAKNTVYLQMNSLKPEDTAVYYSAAGTRRTDGYSWGQGTQVTVAS” as the sequence, how does the “polyreactivity (PSR sort gate)” value read?
A: high polyreactivity

Q: For “QVQLVESGGGLVQAGGSLRLSCAASGRIFYRNTMGWYRQAPGKERELVAPITSSGASTYYADSVKGRFTISRDIAKNTVYLQMNSLKPEDTAVYFCGAQPYVEGTKRYYWGQGTQVTVSS”, which “polyreactivity (PSR sort gate)” value is on record?
A: high polyreactivity

Q: For “QVQLVESGGGLVQAGGSLRLSCAASGRIFYRYAMGWYRQAPGKERELVAAIRYSGGRTYYADSVKGRFTISRDNAKNTVYLQMNSLKPEDTAVYYCAARGWYKSDYWGQGTQVTVSS”, which “polyreactivity (PSR sort gate)” value is on record?
A: low polyreactivity

Q: With “QVQLVESGGGLVQAGGSLRLSCAASGRIFYRYAMGWYRQAPGKERELVAAITGSGGRTYADSVKGRFTISRDNAKNTVYLQMNSLKPEDTAVYYCNDRSFCPTESRYDYWGQGTQVTVSS” as the sequence, how does the “polyreactivity (PSR sort gate)” value read?
A: high polyreactivity

Q: For “QVQLVESGGGLVQAGGSLRLSCAASGRIFYRYAMGWYRQAPGKERELVAAITQSGGSTFYADSVKGRFTISRDNAKNTVYLQMNSLKPEDTAVYYCNRRGPGFYSTRFNYWGQGTQVTVSS”, which “polyreactivity (PSR sort gate)” value is on record?
A: high polyreactivity

Q: For “QVQLVESGGGLVQAGGSLRLSCAASGRIFYRYAMGWYRQAPGKERELVADITWRGGRTYYADSVKGRFTISRDNAKNTVYLQMNSLKPEDTAVYYCAATGGFYYWGQGTQVTVSS”, which “polyreactivity (PSR sort gate)” value is on record?
A: low polyreactivity

Q: With “QVQLVESGGGLVQAGGSLRLSCAASGRIFYRYAMGWYRQAPGKERELVARITSSGSTNYADSVKGRFTISRDNAKNTVYLQMNSLKPEDTAVYYCAARKLFIPKYYYWGQGTQVTVSS” as the sequence, how does the “polyreactivity (PSR sort gate)” value read?
A: high polyreactivity

Q: For “QVQLVESGGGLVQAGGSLRLSCAASGRIFYRYAMGWYRQAPGKERELVASITRSGITHYADSVKGRFTISRDNAKNTVYLQMNSLKPEDTAVYYCNARRGSPAPYDYWGQGTQVTVSS”, which “polyreactivity (PSR sort gate)” value is on record?
A: high polyreactivity

Q: Which “polyreactivity (PSR sort gate)” value does the source give for “QVQLVESGGGLVQAGGSLRLSCAASGRIFYRYAMGWYRQAPGKERELVASITSGGSTTYYADSVKGRFTISRDNAKNTVYLQMNSLKPEDTAVYYCAARPRYRKEYDYWGQGTQVTVSS” here?
A: high polyreactivity

Q: With “QVQLVESGGGLVQAGGSLRLSCAASGRIFYRYAMGWYRQAPGKERELVATITSGGRTKYADSVTGRFTIARDNAKNTVYLQMNSLKPEDTAVYYCNAYVYSGYSIRDYWGQGTQVTVSS” as the sequence, how does the “polyreactivity (PSR sort gate)” value read?
A: high polyreactivity

Q: With “QVQLVESGGGLVQAGGSLRLSCAASGRIFYRYARGWYRQAPGKERELVAAITRGGRTNYADSVKGRFTISRDNAQNTVYLQMNSLKPEDTAVYYCRPLWYGFDYWGQGTQVTVSS” as the sequence, how does the “polyreactivity (PSR sort gate)” value read?
A: high polyreactivity

Q: With “QVQLVESGGGLVQAGGSLRLSCAASGRIFYRYTMGWYRQAPGKERELVAVIRSGGRTYYADSVKGRFSISRDNAKNTLSLQMNSLKPEDTSVYYCATLVRVLTLRSDLNLYGYWGQGTQVTVSS” as the sequence, how does the “polyreactivity (PSR sort gate)” value read?
A: high polyreactivity

Q: With “QVQLVESGGGLVQAGGSLRLSCAASGRIFYRYVMGWYRQAPGKERELVAAITSSGGSTYYADSVKGRFTISRDNAKHTVYLQMISLQPEDTAVYYCAADRYTRYRYNYWGQGTQVTVSS” as the sequence, how does the “polyreactivity (PSR sort gate)” value read?
A: high polyreactivity

Q: With “QVQLVESGGGLVQAGGSLRLSCAASGRIFYSNAMGWYRPAPGKERELVAGITISGGSTYYADSVKGRFTISRDYAKNTVSLQMNSLKPEDTAVYYCNARYLRRGDYGGQGTQVTVSS” as the sequence, how does the “polyreactivity (PSR sort gate)” value read?
A: low polyreactivity

Q: With “QVQLVESGGGLVQAGGSLRLSCAASGRIFYSNAMGWYRQAPGKERELVAAITGSGGRTHYADSVKGRFTISRDNAKNTVYLQMNSLKPEDTAVYYCAKDGYFPEFDYWGQGTKVTVSS” as the sequence, how does the “polyreactivity (PSR sort gate)” value read?
A: high polyreactivity

Q: For “QVQLVESGGGLVQAGGSLRLSCAASGRIFYSNAMGWYRQAPGKERELVATISRGGSTYADSVKGRFTISRDNAKNTVYLQMNSLKPEDTAVYYCAAGLQGYPRKFNYWGQGTQVTVSS”, which “polyreactivity (PSR sort gate)” value is on record?
A: low polyreactivity

Q: Which “polyreactivity (PSR sort gate)” value does the source give for “QVQLVESGGGLVQAGGSLRLSCAASGRIFYSNAMGWYRQAPGKERELVATITYYADSVKGRFTISRDNAKNTVYLQMNSLKPEDTSVYYCAAVYLYYSRSDLYDYWGQGTQVTVSS” here?
A: low polyreactivity
